{"source": "IntAct's records for PubMed 15893672", "parents": {"B1": {"name": "Angiopoietin-2 (Homo sapiens), O15123-1 (parent)", "chain": "MWQIVFFTLSCDLVLAAAYNNFRKSMDSIGKKQYQVQHGSCSYTFLLPEMDNCRSSSSPYVSNAVQRDAPLEYDDSVQRLQVLENIMENNTQWLMKLENYIQDNMKKEMVEIQQNAVQNQTAVMIEIGTNLLNQTAEQTRKLTDVEAQVLNQTTRLELQLLEHSLSTNKLEKQILDQTSEINKLQDKNSFLEKKVLAMEDKHIIQLQSIKEEKDQLQVLVSKQNSIIEELEKKIVTATVNNSVLQKQQHDLMETVNNLLTMMSTSNSAKDPTVAKEEQISFRDCAEVFKSGHTTNGIYTLTFPNSTEEIKAYCDMEAGGGGWTIIQRREDGSVDFQRTWKEYKVGFGNPSGEYWLGNEFVSQLTNQQRYVLKIHLKDWEGNEAYSLYEHFYLSSEELNYRIHLKGLTGTAGKISSISQPGNDFSTKDGDNDKCICKCSQMLTGGWWFDACGPSNLNGMYYPQRQNTNKFNGIKWYYWKGSGYSLKATTMMIRPADF"}}}
{"variants_of": "B1", "conditions": "with tie2_human TEK"}
{"variant": "MWQIVFFTLSCDLVLAAAYNNFRKSMDSIGKKQYQVQHGSCSYTFLLPEMDNCRSSSSPYVSNAVQRDAPLEYDDSVQRLQVLENIMENNTQWLMKLENYIQDNMKKEMVEIQQNAVQNQTAVMIEIGTNLLNQTAEQTRKLTDVEAQVLNQTTRLELQLLEHSLSTNKLEKQILDQTSEINKLQDKNSFLEKKVLAMEDKHIIQLQSIKEEKDQLQVLVSKQNSIIEELEKKIVTATVNNSVLQKQQHDLMETVNNLLTMMSTSNSAKDPTVAKEEQISFRDCAEVFKSGHTTNGIYTLTFPNSTEEIKAYCDMEAGGGGWTIIQRREDGSVDFQRTWKEYKVGFGNPSGEYWLGNEFVSQLTNQQRYVLKIHLKDWEGNEAYSLYEHFYLSSEELNYRIHLKGLTGTAGKISSISQPGNDFSTKDGDNDKCICKCSQMLTGGWWFDACGPSNLNGMYYPQRQNTNEFNGIEWYYWKGSGYSLKATTMMIRPADF", "note": "[K468E;K473E]", "effect of a mutation on the interaction": "disrupting interaction"}
{"variant": "MWQIVFFTLSCDLVLAAAYNNFRKSMDSIGKKQYQVQHGSCSYTFLLPEMDNCRSSSSPYVSNAVQRDAPLEYDDSVQRLQVLENIMENNTQWLMKLENYIQDNMKKEMVEIQQNAVQNQTAVMIEIGTNLLNQTAEQTRKLTDVEAQVLNQTTRLELQLLEHSLSTNKLEKQILDQTSEINKLQDKNSFLEKKVLAMEDKHIIQLQSIKEEKDQLQVLVSKQNSIIEELEKKIVTATVNNSVLQKQQHDLMETVNNLLTMMSTSNSAKDPTVAKEEQISFRDCAEVFKSGHTTNGIYTLTFPNSTEEIKAYCDMEAGGGGWTIIQRREDGSVDFQRTWKEYKVGFGNPSGEYWLGNEFVSQLTNQQRYVLKIHLKDWEGNEAYSLYEHFYLSSEELNYRIHLKGLTGTAGKISSISQPGNDFSTKDGDNDKCICKCSQMLTGGWWFDACGPSNLNGMYYPQRQNTNKANGIKWAAWKGSGYSLKATTMMIRPADF", "note": "[F469A;Y475A;Y476A]", "effect of a mutation on the interaction": "disrupting interaction"}
